Measured values: paper PMC9352680, “A comprehensive thermodynamic model for RNA binding by the Saccharomyces cerevisiae Pumilio protein PUF4”
Numbering of substitutions follows the chain as printed. Names and notes keep the numbering of the source.

T1: PUF4 RNA-binding domain (Saccharomyces cerevisiae, UniProt P25339 537-888)
T1 sequence: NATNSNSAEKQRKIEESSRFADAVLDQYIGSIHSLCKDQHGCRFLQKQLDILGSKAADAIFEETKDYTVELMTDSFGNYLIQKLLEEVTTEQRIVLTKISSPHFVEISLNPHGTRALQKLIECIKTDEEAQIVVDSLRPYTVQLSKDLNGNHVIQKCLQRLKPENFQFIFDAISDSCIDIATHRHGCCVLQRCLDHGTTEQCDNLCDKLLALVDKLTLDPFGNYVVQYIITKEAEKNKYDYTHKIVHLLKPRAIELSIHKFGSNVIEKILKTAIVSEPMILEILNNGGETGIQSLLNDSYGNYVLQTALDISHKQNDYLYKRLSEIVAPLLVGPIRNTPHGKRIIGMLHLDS

B1: Id_i_S4_P3E.2_K3.1_C3.2_[C-2T]_[T-1G]_H3.1_A3.1_F3.1_T3.2 (ssRNA)
RNA: UUUGACAACUGAUCGUUCUUUCUUGUGUAUAUAUAUUCUUUCUCGAUCAGUUGUCUUU
B2: Id_i_S4_P3E.4_K3.3_C3.2_[C-2T]_[T-1C]_H3.3_A3.1_F3.1_T3.2 (ssRNA)
RNA: B1 RNA with G25C, U26A, G27C, U28A, A29C
B3: Id_i_S4_P3E.3_K3.2_C3.2_[C-2T]_[T-1C]_H3.2_A3.1_F3.1_T3.2 (ssRNA)
RNA: B1 RNA with G25C, G27A
B4: Id_i_S4_P3E.2_K3.1_C3.2_[C-2T]_[T-1A]_H3.1_A3.1_F3.1_T3.2 (ssRNA)
RNA: B1 RNA with G25A
B5: Id_i_S4_P3E.4_K3.3_C3.2_[C-2A]_[T-1C]_H3.3_A3.1_F3.1_T3.2 (ssRNA)
RNA: B1 RNA with U24A, G25C, U26A, G27C, U28A, A29C
B6: Id_ii_S4_P3E.4_K3.3_C3.2_[C-2G]_[T-1C]_H3.3_A3.1_F3.1_T3.2 (ssRNA)
RNA: B1 RNA with U24G, G25C, U26A, G27C, U28A, A29C
B7: Id_i_S4_P3E.3_K3.2_C3.2_[C-2T]_[T-1G]_H3.2_A3.1_F3.1_T3.2 (ssRNA)
RNA: B1 RNA with G27A
B8: Id_i_S4_P3E.2_K3.1_C3.2_[C-2T]_[T-1C]_H3.1_A3.1_F3.1_T3.2 (ssRNA)
RNA: B1 RNA with G25C
B9: Id_i_S2_P3E.6_K3.2_C3.3_[T-3G]_[C-2G]_[T-1C]_H3.2_A3.1_F3.1_T3.2 (ssRNA)
RNA: UUUGAUUAAUAUGAUAUCGUUCUUUCUGGCUAUAUAUAUAUUCUUUCUCGAUAUCAUAUUAAUCUUU
B10: Id_i_S2_P3E.7_K3.3_C3.3_[T-3A]_[C-2T]_[T-1G]_H3.3_A3.1_F3.1_T3.2 (ssRNA)
RNA: B9 RNA with G28A, G29U, C30G, U31A, A32C, U33A, A34C
B11: Id_i_S2_P3E.6_K3.2_C3.3_[T-3A]_[C-2T]_[T-1C]_H3.2_A3.1_F3.1_T3.2 (ssRNA)
RNA: B9 RNA with G28A, G29U
B12: Id_i_S2_P3E.7_K3.3_C3.3_[T-3G]_[C-2T]_[T-1A]_H3.3_A3.1_F3.1_T3.2 (ssRNA)
RNA: B9 RNA with G29U, C30A, U31A, A32C, U33A, A34C
B13: Id_i_S2_P3E.7_K3.3_C3.3_[T-3C]_[C-2A]_[T-1G]_H3.3_A3.1_F3.1_T3.2 (ssRNA)
RNA: B9 RNA with G28C, G29A, C30G, U31A, A32C, U33A, A34C
B14: Id_i_S2_P3E.7_K3.3_C3.3_[T-3A]_[C-2T]_[T-1A]_H3.3_A3.1_F3.1_T3.2 (ssRNA)
RNA: B9 RNA with G28A, G29U, C30A, U31A, A32C, U33A, A34C
B15: Id_i_S2_P3E.7_K3.3_C3.3_[T-3C]_[C-2A]_[T-1C]_H3.3_A3.1_F3.1_T3.2 (ssRNA)
RNA: B9 RNA with G28C, G29A, U31A, A32C, U33A, A34C
B16: Id_i_S2_P3E.6_K3.2_C3.3_[T-3A]_[C-2A]_[T-1C]_H3.2_A3.1_F3.1_T3.2 (ssRNA)
RNA: B9 RNA with G28A, G29A
B17: Id_i_S2_P3E.6_K3.2_C3.3_[T-3A]_[C-2G]_[T-1C]_H3.2_A3.1_F3.1_T3.2 (ssRNA)
RNA: B9 RNA with G28A
B18: Id_i_S2_P3E.7_K3.3_C3.3_[T-3C]_[C-2A]_[T-1A]_H3.3_A3.1_F3.1_T3.2 (ssRNA)
RNA: B9 RNA with G28C, G29A, C30A, U31A, A32C, U33A, A34C
B19: Id_i_S2_P3E.6_K3.2_C3.3_[T-3C]_[C-2A]_[T-1C]_H3.2_A3.1_F3.1_T3.2 (ssRNA)
RNA: B9 RNA with G28C, G29A
B20: Id_i_S2_P3E.6_K3.2_C3.3_[T-3C]_[C-2G]_[T-1C]_H3.2_A3.1_F3.1_T3.2 (ssRNA)
RNA: B9 RNA with G28C
B21: Id_i_S2_P3E.7_K3.3_C3.3_[T-3A]_[C-2G]_[T-1C]_H3.3_A3.1_F3.1_T3.2 (ssRNA)
RNA: B9 RNA with G28A, U31A, A32C, U33A, A34C
B22: Id_i_S2_P3E.7_K3.3_C3.3_[T-3C]_[C-2T]_[T-1A]_H3.3_A3.1_F3.1_T3.2 (ssRNA)
RNA: B9 RNA with G28C, G29U, C30A, U31A, A32C, U33A, A34C
B23: Id_i_S2_P3E.6_K3.2_C3.3_[T-3C]_[C-2T]_[T-1C]_H3.2_A3.1_F3.1_T3.2 (ssRNA)
RNA: B9 RNA with G28C, G29U
B24: Id_i_S4_P3E.5_K3.1_C3.3_[T-3C]_[C-2G]_[T-1C]_H3.1_A3.1_F3.1_T3.2 (ssRNA)
RNA: UUUGACAACUGAUCGUUCUUUCUCGCUGUAUAUAUAUUCUUUCUCGAUCAGUUGUCUUU
B25: Id_i_S4_P3E.7_K3.3_C3.3_[T-3C]_[C-2A]_[T-1G]_H3.3_A3.1_F3.1_T3.2 (ssRNA)
RNA: B24 RNA with G25A, C26G, U27A, G28C, U29A, A30C
B26: Id_i_S4_P3E.6_K3.2_C3.3_[T-3C]_[C-2T]_[T-1A]_H3.2_A3.1_F3.1_T3.2 (ssRNA)
RNA: B24 RNA with G25U, C26A, G28A
B27: Id_i_S4_P3E.6_K3.2_C3.3_[T-3C]_[C-2A]_[T-1C]_H3.2_A3.1_F3.1_T3.2 (ssRNA)
RNA: B24 RNA with G25A, G28A
B28: Id_i_S4_P3E.7_K3.3_C3.3_[T-3C]_[C-2A]_[T-1A]_H3.3_A3.1_F3.1_T3.2 (ssRNA)
RNA: B24 RNA with G25A, C26A, U27A, G28C, U29A, A30C
B29: Id_i_S4_P3E.7_K3.3_C3.3_[T-3C]_[C-2T]_[T-1G]_H3.3_A3.1_F3.1_T3.2 (ssRNA)
RNA: B24 RNA with G25U, C26G, U27A, G28C, U29A, A30C
B30: Id_i_S4_P3E.5_K3.1_C3.3_[T-3A]_[C-2T]_[T-1C]_H3.1_A3.1_F3.1_T3.2 (ssRNA)
RNA: B24 RNA with C24A, G25U
B31: Id_i_S4_P3E.6_K3.2_C3.3_[T-3A]_[C-2G]_[T-1C]_H3.2_A3.1_F3.1_T3.2 (ssRNA)
RNA: B24 RNA with C24A, G28A
B32: Id_i_S4_P3E.6_K3.2_C3.3_[T-3G]_[C-2G]_[T-1C]_H3.2_A3.1_F3.1_T3.2 (ssRNA)
RNA: B24 RNA with C24G, G28A
B33: Id_i_S4_P3E.6_K3.2_C3.3_[T-3C]_[C-2T]_[T-1G]_H3.2_A3.1_F3.1_T3.2 (ssRNA)
RNA: B24 RNA with G25U, C26G, G28A
B34: Id_i_S4_P3E.7_K3.3_C3.3_[T-3A]_[C-2T]_[T-1C]_H3.3_A3.1_F3.1_T3.2 (ssRNA)
RNA: B24 RNA with C24A, G25U, U27A, G28C, U29A, A30C
B35: Id_i_S4_P3E.5_K3.1_C3.3_[T-3C]_[C-2T]_[T-1G]_H3.1_A3.1_F3.1_T3.2 (ssRNA)
RNA: B24 RNA with G25U, C26G
B36: Id_i_S4_P3E.7_K3.3_C3.3_[T-3C]_[C-2T]_[T-1A]_H3.3_A3.1_F3.1_T3.2 (ssRNA)
RNA: B24 RNA with G25U, C26A, U27A, G28C, U29A, A30C

What follows are binders tested against T1, PUF4 RNA-binding domain (assay: Mg; RNA-MaP; 20 mM Na-HEPES pH 7.4, 30 mM KOAc, 0.75 mM MgCl2, 0.1% Tween-20, 5% glycerol, 0.1 mg/mL BSA, 2 mM DTT; 25 C; 0.0125-409.6 nM protein). Details: tags: N-His6-TEV cleaved; C-SNAP kept, Cy3B-labelled; label: tethered on chip by stalled RNA polymerase.

Binder	Kd [nM]
ACAAACAUAACACUAUAUAACAAAC (ssRNA) [Id_i_S3_P3E.7_K3.3_C3.3_[T-3A]_[C-2T]_[T-1A]_H3.3_A3.1_F3.1_T3.2]	> 2300
UCUCUUCUUAUAUUAUCUCUU (ssRNA) [Ib_S1_P4E.1_K4.1_C4.1_H4.1_[T1C]_[G2T]_A4.1_F4.1_T4.1]	685
ACAAACAAGUAUAUAUAUAACAAAC (ssRNA) [Id_i_S3_P3E.6_K3.2_C3.3_[T-3A]_[C-2A]_[T-1G]_H3.2_A3.1_F3.1_T3.2]	316
UCUCUUAGCAUAUUAUCUCUU (ssRNA) [Ib_S1_P4E.1_K4.1_C4.1_H4.1_[T1A]_[T3C]_A4.1_F4.1_T4.1]	1930
ACAAACCGGUAUAUAUAUAACAAAC (ssRNA) [Id_i_S3_P3E.6_K3.2_C3.3_[T-3C]_[C-2G]_[T-1G]_H3.2_A3.1_F3.1_T3.2]	1060
ACAAACGGAACACUAUAUAACAAAC (ssRNA) [Id_i_S3_P3E.7_K3.3_C3.3_[T-3G]_[C-2G]_[T-1A]_H3.3_A3.1_F3.1_T3.2]	1440
ACAAACCAAACACUAUAUAACAAAC (ssRNA) [Id_i_S3_P3E.7_K3.3_C3.3_[T-3C]_[C-2A]_[T-1A]_H3.3_A3.1_F3.1_T3.2]	> 2300
ACAAACAGACACUAUAUAACAAAC (ssRNA) [Id_ii_S3_P3E.4_K3.3_C3.2_[C-2A]_[T-1G]_H3.3_A3.1_F3.1_T3.2]	> 2300
B1	1.47
B2	202
B3	68.1
B4	4.77
B5	295
B6	30.3
B7	4.75
B8	0.82
ACAAACGCACACUAUAUAACAAAC (ssRNA) [Id_ii_S3_P3E.4_K3.3_C3.2_[C-2G]_[T-1C]_H3.3_A3.1_F3.1_T3.2]	1830
ACAAACGGCUAUAUAUAUAACAAAC (ssRNA) [Id_i_S3_P3E.6_K3.2_C3.3_[T-3G]_[C-2G]_[T-1C]_H3.2_A3.1_F3.1_T3.2]	1360
UCUCUUCGUGUAUUAUCUCUU (ssRNA) [Ib_S1_P4E.1_K4.1_C4.1_H4.1_[T1C]_[A4G]_A4.1_F4.1_T4.1]	33.2
B9	1300

Binder	Kd [nM]
B10	597
B11	170
B12	5.76
B13	610
B14	708
B15	482
B16	105
B17	528
B18	222
B19	68.5
B20	68.2
B21	429
B22	214
B23	35
B24	1.51
B25	572
B26	500
B27	56.5
B28	110
B29	424

Binder	Kd [nM]
B30	1.98
B31	537
B32	1420
B33	1.92
B34	346
B35	1.5
B36	113
UCUCUUAAUAUAUUAUCUCUU (ssRNA) [Ib_S1_P4E.1_K4.1_C4.1_H4.1_[T1A]_[G2A]_A4.1_F4.1_T4.1]	564
ACAAACUCACACUAUAUAACAAAC (ssRNA) [Id_i_S3_P3E.4_K3.3_C3.2_[C-2T]_[T-1C]_H3.3_A3.1_F3.1_T3.2]	> 2300
ACAAACACACACUAUAUAACAAAC (ssRNA) [Id_i_S3_P3E.4_K3.3_C3.2_[C-2A]_[T-1C]_H3.3_A3.1_F3.1_T3.2]	> 2300
UCUCUUCAUAUAUUAUCUCUU (ssRNA) [Ib_S1_P4E.1_K4.1_C4.1_H4.1_[T1C]_[G2A]_A4.1_F4.1_T4.1]	487
ACAAACAGGUAUAUAUAUAACAAAC (ssRNA) [Id_i_S3_P3E.6_K3.2_C3.3_[T-3A]_[C-2G]_[T-1G]_H3.2_A3.1_F3.1_T3.2]	566
UCUCUUUGUAUGUUAUCUCUU (ssRNA) [Ic_S1_P4E.1_K4.1_C4.1_H4.1_A4.1_[A6G]_F4.1_T4.1]	4.82
ACAAACAAUAUAUAUAUAACAAAC (ssRNA) [Id_ii_S3_P3E.3_K3.2_C3.2_[C-2A]_[T-1A]_H3.2_A3.1_F3.1_T3.2]	531
ACAAACGGUAUAUAUAUAACAAAC (ssRNA) [Id_ii_S3_P3E.3_K3.2_C3.2_[C-2G]_[T-1G]_H3.2_A3.1_F3.1_T3.2]	550
ACAAACAGUAUAUAUAUAACAAAC (ssRNA) [Id_i_S3_P3E.3_K3.2_C3.2_[C-2A]_[T-1G]_H3.2_A3.1_F3.1_T3.2]	385
ACAAACAUCACACUAUAUAACAAAC (ssRNA) [Id_i_S3_P3E.7_K3.3_C3.3_[T-3A]_[C-2T]_[T-1C]_H3.3_A3.1_F3.1_T3.2]	2250
ACAAACCUCUAUAUAUAUAACAAAC (ssRNA) [Id_i_S3_P3E.6_K3.2_C3.3_[T-3C]_[C-2T]_[T-1C]_H3.2_A3.1_F3.1_T3.2]	219
